Assay results from patent US20190381169A1, “PHARMACEUTICAL COMBINATIONS FOR IMMUNOTHERAPY” (Technische Universitat Dresden, priority 2014, published 2019).
Entries after “also recorded” stand apart in the source; their conditions may differ.

Columns and labels:
p75^NTR [1] = target: T1, p75^NTR (Mus musculus, UniProt Q9Z0W1); experiment: OVA-mediated allergic asthma induced by intratracheal OVA-loaded PDCs; type: in vivo
T1 construct: endogenous in cells; host or cells: murine plasmacytoid dendritic cells differentiated in vitro from bone marrow with Flt3-L (p75NTR+/+ wildtype; p75NTR-/- as control)
T1 sequence (Q9Z0W1 32-427): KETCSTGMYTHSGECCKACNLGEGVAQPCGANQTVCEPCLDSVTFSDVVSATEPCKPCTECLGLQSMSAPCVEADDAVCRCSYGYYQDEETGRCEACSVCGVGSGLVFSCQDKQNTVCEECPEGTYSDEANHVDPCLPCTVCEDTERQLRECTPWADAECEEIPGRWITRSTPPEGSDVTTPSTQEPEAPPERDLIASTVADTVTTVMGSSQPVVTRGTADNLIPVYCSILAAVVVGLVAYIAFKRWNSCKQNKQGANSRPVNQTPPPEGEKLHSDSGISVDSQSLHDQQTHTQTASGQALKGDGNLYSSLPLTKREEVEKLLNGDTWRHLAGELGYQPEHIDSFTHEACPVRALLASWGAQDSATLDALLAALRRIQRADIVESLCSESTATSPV
Source text: Heterozygous p75^NTR knockout mice (p75^NTR+/−) were purchased from The Jackson Laboratory (Bar Harbor, Me., USA) and bred under pathogen-free conditions in the animal facility of the TU Dresden. Male and female p75^NTR+/+ and p75^NTR−/− mice were used at 10-12 weeks of age for experiments.
Murine PDC were generated in vitro as follows: Bone marrow cells were isolated by flushing femur and tibia of mice. Erythrocytes were lysed using ACK buffer. Remaining cells were washed and cultured at a density of 2×10^6 cells per ml in RPMI 1640 medium supplemented with 10% FCS, 1 mM sodium pyruvat, 2 mM L-glutamine, 100 IU per ml penicillin, 100 μg/ml streptomycin, 10 mM HEPES buffer and 0.1 mM β-mercaptoethanol. To differentiate bone marrow cells into PDCs, 100 ng/ml Flt3-L (fms-like tyrosine kinase 3-ligand) was added to the cells. After 8 days of culture PDCs were enriched by removing the CD11b^+ fraction using CD11b Microbeads (Miltenyi Biotec) according to manufacturer instructions. Dead cells were excluded using Dead cell removal Kit (Miltenyi Biotec). Purity of PDCs was evaluated by flow cytometry (CD11b^−CD11c^+B220^+Siglec-H^+).
To induce allergic asthma, in vitro generated PDCs were incubated with 100 μg/ml ovalbumin (OVA; grade V; Sigma-Aldrich) for 24 h. To sensitize mice, 1×10^6 OVA-loaded PDCs were injected intratracheally to the lungs of anesthetized mice using 24GA i.v. cannula (BD Neoflon™). Control animals received either the same amount of PDCs without OVA or PBS. After 10 days, mice were exposed to 1% w/v OVA-aerosol for 30 min on 3 consecutive days in order to induce allergic reaction. 24 h after last provocation, animals were sacrificed and the immune reaction was examined based on the bronchoalveolar lavage fluid (BALF) cell composition (eosinophils, lymphocytes, macrophages) and pro-inflammatory cytokines spectrum, lung histology and blood serum OVA-specific IgE levels.
BALF cells were quantified by flow cytometry. Cells were preincubated with FcR blocking reagent to avoid a non-specific binding. The following antibodies were used for staining: CD3-V500, CD4-V450, CD8-PE Cy7, CD11c-APC Cy7, B220-PE, F4/80-PerCP, SiglecF-AF647, Ly6G-FITC. Among lymphocytes (FSC^low/SSC^low) the CD4^+ T helper cells were designated as CD3^posCD4^pos; the CD8^+ T helper cells as CD3^posCD8^pos; B-cells as CD3^negB220^pos; among granulocytes (FSC^low/SSC^high, Ly6G^pos) eosinophils were assigned as SiglecF^posCD11c^neg and neutrophils as SiglecF^neg. Macrophages were assigned as FSC^high highly autofluorescent CD11c^posF4/80^pos cells. Additionally, the cytospins of collected cells were prepared and stained according to Pappenheim's method.
BALF supernatant was used for quantification of IL-4, IL-5 and IL-13 by ELISA (eBioscience) according to manufacturer instruction.
Lungs were perfused with PBS and fixed in 4% v/v formaldehyde. 4 μm sections of paraffin-embedded lungs were stained with PAS staining for quantification of inflammation and GobleT-cell hyperplasia.
NGF is present in the lung and increased during inflammatory processes such as allergic asthma. To investigate the impact of NGF on PDCs during allergen-mediated immune response, p75^NTR+/+ PDCs were incubated with ovalbumin (OVA) in the presence or absence of NGF (100 ng/ml) prior intratracheal instillation to p75^NTR+/+ mice.
To substantiate the p75^NTR dependent impact of NGF on PDCs during allergen-mediated immune response, p75^NTR+/+ PDCs were incubated with ovalbumin (OVA) and NGF (100 ng/ml) in the presence or absence of the p75^NTR-specific inhibitory peptide PEP5 prior intratracheal instillation to p75^NTR+/+ mice.

p75^NTR [2] = target: T1, p75^NTR; conditions: in vivo
[3] = p75^NTR+/+ PDCs incubated with OVA in presence of NGF (100 ng/ml) vs OVA alone, then intratracheal instillation to p75^NTR+/+ mice

NGF: Nerve growth factor, best characterized neurotrophin; natural p75^NTR agonist (R&D Systems)
number of macrophages in BALF (p75^NTR [1]; OVA up-take by PDCs in presence of NGF vs OVA alone): decreased | production of Th2 cytokines (IL-4, IL-5 and IL-13) in the lung (p75^NTR [1]; OVA-loaded PDCs treated with NGF vs pulsed with OVA in absence of NGF): increased production | inflammatory phenotype in the lung (histology: perivascular inflammation, mucus production) (p75^NTR [1]; PDCs treated with NGF during OVA-uptake): potentiated the inflammatory phenotype in the lung | numbers of eosinophils in BALF (p75^NTR [1]; [3]): significantly augmented | numbers of lymphocytes in BALF (p75^NTR [1]; [3]): significantly augmented | induction of airway inflammation by p75^NTR−/− PDCs (p75^NTR [1]; p75^NTR−/− PDCs loaded with OVA in presence or absence of NGF, data not shown): not able to induce airway inflammation | type I diabetes incidence without CpG B (p75^NTR [2]): no NGF dependent effect | time of onset of PDC induced type I diabetes (diabetes free time) (p75^NTR [2]; iv): occurred at a significant later stage; also recorded: significantly prolonged
